{"source": "paper PMC2561144", "about": "(Journal of Experimental Botany, 2008)", "binders": {"B1": {"name": "His6-AtRabD1 (natural protein)", "chain": "not shown"}, "B2": {"name": "His6-AtRabC2a (natural protein)", "chain": "MGSSSGQSGYDLSFKILLIGDSGVGKSSLLVSFISSSVEDLAPTIGVDFKIKQLTVGGKRLKLTIWDTAGQERFRTLTSSYYRGAQGIILVYDVTRRETFTNLVDVWGKEIELYSTNQECVRMLVGNKVDRESERGVSREEGIALAKELNCMFLECSARTRQNVEQCFEELALKIMEVPSLLEEGSSAVKRNILKQKPEHQTNTQSGCCS"}}, "key": {"[1]": {"molecular_target": "T1, MYA2 tail 1, aa1049-aa1505, fused with GST (Arabidopsis thaliana, UniProt Q9LKB9 1049-1505)", "T1 sequence": "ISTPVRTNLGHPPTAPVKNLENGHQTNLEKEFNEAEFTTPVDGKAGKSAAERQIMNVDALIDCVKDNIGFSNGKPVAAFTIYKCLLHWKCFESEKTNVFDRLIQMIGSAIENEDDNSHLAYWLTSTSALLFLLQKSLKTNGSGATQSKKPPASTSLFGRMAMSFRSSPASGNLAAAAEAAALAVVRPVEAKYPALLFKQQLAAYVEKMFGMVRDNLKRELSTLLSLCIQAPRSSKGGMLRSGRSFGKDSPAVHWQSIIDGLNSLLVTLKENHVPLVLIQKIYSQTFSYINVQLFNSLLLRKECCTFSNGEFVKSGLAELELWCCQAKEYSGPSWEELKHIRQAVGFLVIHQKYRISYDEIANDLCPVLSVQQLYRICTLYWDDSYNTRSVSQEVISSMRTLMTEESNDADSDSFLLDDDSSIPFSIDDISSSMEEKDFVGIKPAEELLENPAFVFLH", "assay": "pull-down"}, "[2]": {"molecular_target": "T2, MYA2 tail 2, aa1049-aa1450, fused with GST (Arabidopsis thaliana, UniProt Q9LKB9 1049-1450)", "T2 sequence": "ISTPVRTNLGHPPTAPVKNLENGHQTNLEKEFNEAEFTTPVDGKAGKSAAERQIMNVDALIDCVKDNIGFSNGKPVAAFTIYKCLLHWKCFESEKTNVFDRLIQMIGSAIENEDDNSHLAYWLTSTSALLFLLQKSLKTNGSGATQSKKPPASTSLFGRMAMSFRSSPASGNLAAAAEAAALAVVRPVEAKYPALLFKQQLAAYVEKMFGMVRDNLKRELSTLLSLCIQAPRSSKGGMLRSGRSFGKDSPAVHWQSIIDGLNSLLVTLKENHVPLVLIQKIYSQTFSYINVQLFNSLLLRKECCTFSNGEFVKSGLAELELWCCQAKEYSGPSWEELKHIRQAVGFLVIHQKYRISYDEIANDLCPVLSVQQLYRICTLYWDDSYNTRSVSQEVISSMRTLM", "assay": "pull-down"}}, "data": [{"binder": "B1", "values": [{"measurement": "fold amount bound with GTP over that without GTP or on control beads", "setting": "[1]", "value": 2.6, "unit": "fold"}, {"measurement": "fold amount bound with GTP over that without GTP or on control beads", "setting": "[2]", "value": 1.6, "unit": "fold"}]}, {"binder": "B2", "values": [{"measurement": "fold amount bound with GTP over that without GTP or on control beads", "setting": "[1]", "value": 1.7, "unit": "fold"}]}]}
